Measured values from paper PMC4014545, “Structure and Inhibition of Mouse Leukotriene C4 Synthase” (PLoS ONE, 2014).

Columns and labels:
[1] = target: T1, mouse leukotriene C4 synthase (mLTC4S) (Mus musculus, UniProt Q60860); test: LTC4 formation by purified enzyme, RP-HPLC; competitive inhibition model fit; assay type: biochemical
T1 construct: gene Ltc4s; N-terminal hexa-histidine tag
T1 sequence (Q60860 1-150): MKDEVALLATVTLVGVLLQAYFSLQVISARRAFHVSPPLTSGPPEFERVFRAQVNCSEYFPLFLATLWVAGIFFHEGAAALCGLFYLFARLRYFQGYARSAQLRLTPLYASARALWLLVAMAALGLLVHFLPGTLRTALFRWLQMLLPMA

[2] = target: T2, human leukotriene C4 synthase (hLTC4S) (Homo sapiens, UniProt Q16873); test: as above; assay type: biochemical
T2 construct: gene LTC4S
T2 sequence (Q16873 1-150): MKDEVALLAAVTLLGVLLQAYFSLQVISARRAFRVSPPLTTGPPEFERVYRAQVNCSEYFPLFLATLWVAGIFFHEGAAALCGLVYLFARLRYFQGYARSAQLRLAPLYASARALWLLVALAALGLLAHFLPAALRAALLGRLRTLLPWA

[3] = target: T1, mouse leukotriene C4 synthase (mLTC4S); test: X-ray crystal structure (co-crystal), […] Å; Km […] also measured; assay type: binding
[4] = substrate: CCCCC/C=C\C\C=C/C=C/C=C/[C@@H]1O[C@H]1CCCC(=O)O; test: steady-state kinetics (Km) of purified enzyme, RP-HPLC; assay type: biochemical, Homo sapiens; conditions: GSH hydrophobic LTA4 binding site; pH 7.8
[5] = substrate: CCCCC/C=C\C\C=C/C=C/C=C/[C@@H]1O[C@H]1CCCC(=O)O; test: as above; assay type: biochemical, Mus musculus; conditions: GSH hydrophobic LTA4 binding site; pH 7.8

## CN(c1ccc(Cl)cc1)c1ccc(C(=O)c2ccc(C(=O)c3ccccc3)c(C(=O)O)c2)nc1 [TK04, 2-Benzoyl-5-{5-[(4-chlorophenyl) (methyl)amino]pyridine-2-carbonyl}benzoic acid]
[1]
  Ki: 37 ± 6.4 nM
[2]
  Ki: 41 ± 6.6 nM

## N[C@@H](CCC(=O)N[C@@H](CS)C(=O)NCC(=O)O)C(=O)O [GSH]
[3]
  X-ray crystal structure (co-crystal), 2.7 Å; Km 1.2±0.24 mM also measured: In the structure of the mLTC4S in complex with GSH, the tripeptide has a “U” shaped conformation

B1: human leukotriene C4 synthase (hLTC4S) (Homo sapiens) (protein)
chain: T2 sequence (Q16873 1-150)
[4]
  Km: 23 ± 3 µM
  kcat: 15.5 ± 0.8 s⁻¹
  kcat/Km: 600000 ± 57000 M⁻¹ s⁻¹

B2: mouse leukotriene C4 synthase (mLTC4S) (Mus musculus) (protein)
chain: T1 sequence (Q60860 1-150)
notes: N-terminal hexa-histidine tag
[5]
  Km: 36 ± 8 µM
  kcat: 81 ± 7 s⁻¹
  kcat/Km: 2.3e+06 ± 260000 M⁻¹ s⁻¹
